According to US20060045881A1, “Anti-cancer vaccines” (Board of Regents, The University of Texas System, priority 2004, published 2006):

Target: HLA-A2.1 (HLA-A*0201) on the surface of T2 cells (human)

Which Median Channel of Fluorescence of HLA-A2 Expression on T2 (median channel of fluorescence) does the source give for KLGEFYNQMM (modifications not checked) [Influenza B nucleoprotein peptide (aa 85-94), P04665 85-94] here?
The Median Channel of Fluorescence of HLA-A2 Expression on T2 (median channel of fluorescence) was 194.
